Literature values, collected in PMC3634864.

Target: Hemoglobin (Homo sapiens) (UniProt P69905)
Sequence of UniProt P69905 (P69905 2-142, chain 1 of 2): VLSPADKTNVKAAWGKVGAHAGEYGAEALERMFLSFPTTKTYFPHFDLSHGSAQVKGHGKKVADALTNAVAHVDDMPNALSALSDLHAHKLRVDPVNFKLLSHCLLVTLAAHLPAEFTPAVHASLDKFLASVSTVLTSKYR
Sequence of UniProt P69905 (P68871 2-147, chain 2 of 2, further chain): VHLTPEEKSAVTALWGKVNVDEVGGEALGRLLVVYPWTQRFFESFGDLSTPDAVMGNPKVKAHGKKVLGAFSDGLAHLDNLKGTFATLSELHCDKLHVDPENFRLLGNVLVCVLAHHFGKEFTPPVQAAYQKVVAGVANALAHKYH

In the case of Haptoglobin (from UniProt P00738), the Kd is listed as under 1 pM.
